# In US20080201790A1, “Method and product for regulating cell responsiveness to external signals” (priority 1993, published 2008):
# Columns and labels:
# MAPK = MAPK activity in COS cells transfected with MEKK or Raf (Mono Q FPLC fractions); type: cell-based; details: overexpression in COS1 cells, deprived of serum, no added growth factor
# Description: COS cells in 100-mm culture dishes were transfected with either the pCVMV5 expression vector alone (1 μg: control) or the pCVMV5 MEKK construct (1 μg: MEKK). After 48 hours, the cells were placed in serum-free medium containing bovine serum albumin (0.1 percent) for 16 to 18 hours to induce quiescence. […] After centrifugation for 10 minutes at maximum speed in a microfuge, COS cell lysates containing 0.5 to 1 mg of soluble protein were subjected to FPLC on a MONO Q column, and eluted fractions were assayed for MAPK activity according to the method described in Heasley et al., p. 545, 1992, Mol. Biol. Cell, Vol. 3.
# COS cells were prepared using the method described in Example 3. […] FPLC MONO Q ion-exchange column fractions were prepared as described in Example 3 and assayed for MAPK activity according to the method described in Heasley et al., ibid.
# GST-Ras^V12 = experiment: Binding of COS cell-expressed MEKK1 proteins to GST-Ras^V12 agarose; details: COS cell lysates, immunoblot
# Excerpt: COS cells were transiently transfected by the DEAE-dextran protocol as generally described in Example 3. Cos cells were transfected with: (1) p-MEKK1 containing a nucleic acid molecule encoding MEKK1 as described in Lange-Carter et al. (Science 260:315-319, […]); (2) p-MEKKNH2 containing a nucleic acid molecule that encodes a 858 base pair Pvull(682)-Ncol(1541) restriction digest fragment of the amino terminus of MEKK1 ligated into pCMV5; (3) p-MEKKCOOH containing a nucleic acid molecule that encodes a 1435 base pair Ncol(1541)-Sspl(2976) restriction digest fragment that includes the entire kinase domain of MEKK1 ligated into pCMV5; (4) pCMV5 without insert; or (5) p-C4Raf containing a nucleic acid molecule that encodes the amino terminus of Raf-1 ligated into pCMV5. COS cells expressing the various MEKK1 proteins were […] COS cells expressing the various MEKK1 proteins were lysed in EB (1% Triton X-100, 10 mM Tris HCl [pH 7.4], 5 mM EDTA, 50 mM NaCl, 50 mM NaF, 0.1% bovine serum albumin, 0.2 U/ml aprotinin, 1 mM phenylmethylsulfonyl fluoride and 2 mM Na3 VO4). The lysates were separated into two equal parts for separate binding reactions. Half of the lysate was incubated with GST agarose (1.5 μg) while half of the lysate was incubated with GST-Ras^V12 agarose (1.5 μg) (purchased from UBI) for 1 hr at 4° C. The GST-Ras^V12 was preincubated at 30° C. for 30 min with 1 mM nucleotide (GDP or GTPγS). The nucleotide binding reaction was stopped by adding MgCl2 to a final concentration of 20 mM. After the 1 hr binding reaction the agarose beads were pelleted at 2000 rpm for 2 min and washed 3 times with PBS+1.0% Triton X-100. The washed agarose beads were boiled in Laemmli SDS sample buffer and the proteins resolved by SDS polyacrylamide gel electrophoresis. Proteins were transferred onto nitrocellulose for immunoblotting with antibodies specific for an NH2 terminal fusion protein (described in Example 1) or a COOH terminal peptide (described in Example 1).
# [1] = system: p42 and p44 forms of MAPK; experiment: Phosphorylation of p42 and p44 MAPK in COS cells transfected with MEKK 1 or MEKK 3; type: cell-based; details: forty-eight hours after transfection
# Description: (§1) COS cells were transfected with the expression plasmid pCVM5 ligated to cDNA clones encoding either MEKK 1 or MEKK 3 protein, or a control pCVM5 plasmid lacking MEKK cDNA inserts. Forty-eight hours after transfection, the COS cells were lysed and the lysate fractionated on a Mono Q FPLC column using conditions described in Example 4. The fractions were analyzed for tyrosine phosphorylation of MAP kinase-like enzymes using the kinase assay described in Example 4.
# MEK-1 = experiment: Phosphorylation of catalytically inactive MEK-1 by Mono Q fractions of MEKK-transfected COS cells; type: biochemical, mouse
# Description: A cDNA encoding MEK-1 was obtained from mouse B cell cDNA templates with the polymerase chain reaction and oligodeoxynucleotide primers corresponding to portions of the 5′ coding region and 3′ untranslated region of MEK-1. […] Lysates from COS cells transfected with MEKK or mock-transfected (control) were subjected to FPLC on a Mono Q column as described above. […] Reactions were stopped by the addition of 5×SDS sample buffer (10 μl), 1×SDS buffer contains 2 percent SDS, 5 percent glycerol, 62.5 mM tris-HCl (pH 6.8), 5 percent β-mercaptoethanol, and 0.001 percent bromophenol blue. The samples were boiled for 3 minutes and subjected to SDS-PAGE and autoradiography.
# Phosphorylation of kinase MEK-1 and MEKK was visable after 5 minutes and maximal after about 20 minutes. The time-dependent increase in MEKK phosphorylation correlated with a decreased mobility of the MEKK protein during SDS-PAGE. […] The slowly migrating species of MEKK were also detected by immunoblotting. Thus, expression of MEKK appears to activate MAPK by activating MEK.
# p38 MAPK = experiment: Tyrosine phosphorylation of p38 MAPK in COS cells transfected with MEKK 1 or MEKK 3; type: cell-based; details: forty-eight hours after transfection
# Description: as §1
# [2] = fraction 22, 0.15 μg catalytically inactive MEK-1
molecule,measurement,setting,value
"MEKK 1: MEK kinase 1 protein, SEQ ID No. 2 / 4 (protein) MVTAVPAVFSKLVTMLNASGSTHFTRMRRRLMAIADEVEIAEVIQLGVEDTVDGHQDSLQAVAPTSCLENSSLEHTVHREKTGKGLSATRLSASSEDISDRLAGVSVGLPSSTTTEQPKPAVQTKGRPHSQCLNSSPLSHAQLMFPAPSAPCSSAPSVPDISKHRPQAFVPCKIPSASPQTQRKFSLQFQRNCSEHRDSDQLSPVFTQSRPPPSSNIHRPKPSRPVPGSTSKLGDATKSSMTLDLGSASRCDDSFGGGGNSGNAVIPSDETVFTPVEDKCRLDVNTELNSSIEDLLEASMPSSDTTVTFKSEVAVLSPEKAENDDTYKDDVNHNQKCKEKMEAEEEEALAIAMAMSASQDALPIVPQLQVENGEDIIIIQQDTPETLPGHTKAKQPYREDAEWLKGQQIGLGAFSSCYQAQDVGTGTLMAVKQVTYVRNTSSEQEEVVEALREEIRMMGHLNHPNIIRMLGATCEKSNYNLFIEWMAGGSVAHLLSKYGAFKESVVINYTEQLLRGLSYLHENQIIHRDVKGANLLIDSTGQRLRIADFGAAARLASKGTGAGEFQGQLLGTIAFMAPEVLRGQQYGRSCDVWSVGCAIIEMACAKPPWNAEKHSNHLALIFKIASATTAPSIPSHLSPGLRDVAVRCLELQPQDRPPSRELLKHPVFRTTW",MAPK activity relative to control cells transfected with plasmid lacking a MEKK 1 cDNA insert,MAPK,four to five times greater
same,binding to GST-Ras^V12(GTPγS) relative to GST-Ras^V12(GDP),GST-Ras^V12,at least 5 fold
same,binding to GST-Ras^V12 (in words),GST-Ras^V12,capable of binding GST-Ras^V12 in a GTP dependent manner
same,phosphorylation of p42 and p44 MAPK,[1],does induce phosphorylation of p42 and p44 MAPK
same,phosphorylation of MEK-1,MEK-1; Mono Q fractions of transfected COS cells,capable of phosphorylating MEK-1
same,time at which phosphorylation of kinase MEK-1 and MEKK was visible,MEK-1; [2],5 min
same,time of maximal phosphorylation of kinase MEK-1 and MEKK,MEK-1; [2],about 20 minutes
same,phosphorylation of p38 MAPK,p38 MAPK,only induces weak phosphorylation of p38 MAPK
